Tests used:
Assay in all cases: ATPLITE cell viability, TRAIL and compound X with or without anti-human TNFα antibody
Type in all cases: cell-based
[1] = system: SKOV-3 ovarian cancer cells; settings: SKOV-3, 48 hours
Description: (§1) Cells were seeded in flat-bottom 96-well plates (clear bottom, white walls) at a concentration of 1×10^4 cells/well and incubated overnight at 37° C., 5% CO2. The following day, cells were stimulated with TRAIL at a concentration ranging from 0.24 ng/ml to 1 μg/ml (4-fold dilutions) in combination with IAP inhibitor compound X at a concentration ranging from 0.01 nM to […] (10-fold dilutions).
(§2) A blocking antibody to human TNFα (R&D Systems, Minneapolis, Minn.) was added to some cultures at a final concentration of 5 μg/ml two hours before the addition of the combination of TRAIL and compound X. Final culture volumes were 100 μl
(§3) After 48 hours, cell viability was determined using the ATPLITE™ assay, an adenosine triphosphate (ATP) monitoring system based on firefly (Photinus pyralis) luciferase (Perkin Elmer, Waltham, Mass.) according to the manufacturer's recommendations. Relative light units (RLU) were measured using an LJL Biosystems Analyst HT plate reader (Molecular Devices, Sunnyvale, Calif.). The percent of surviving cells was calculated as follows: (experimental RLU/control RLU)×100. The control RLU was determined by testing untreated cells.

[2] = system: A375 melanoma cells; settings: A375, 48 hours
Description: as §1, §2, §3

[3] = system: HCT116 colon cancer cells
Description: as §1, §2, §3

B1: TRAIL: TNF-related apoptosis-inducing ligand (TRAIL), TRAIL receptor agonist (protein, UniProt P50591 1-281, looked up)
Tumor necrosis factor ligand …: MAMMEVQGGPSLGQTCVLIVIFTVLLQSLCVAVTYVYFTNELKQMQDKYSKSGIACFLKEDDSYWDPNDEESMNSPCWQVKWQLRQLVRKMILRTSEETISTVQEKQQNISPLVRERGPQRVAAHITGTRGRSNTLSSPNSKNEKALGRKINSWESSRSGHSFLSNLHLRNGELVIHEKGFYYIYSQTYFRFQEEIKENTKNDKQMVQYIYKYTSYPDPILLMKSARNSCWSKDAEYGLYSIYQGGIFELKENDRIFVSVTNEHLIDMDHEASFFGAFLVG
[1]
  single agent-induced cell death: resistant
[2]
  single agent killing: partialy resistant
[3]; HCT116, 48 hours
  single agent-induced cell death: some sensitivity
[3]; HCT116, TRAIL 1 μg/ml, 48 hours
  surviving cells (percent of control): 40%
